Data: the supplement of paper PMC12455559
± gives the standard deviation of the averaged measurements.

Columns and labels:
[1] = PET hydrolysis, aromatic products released after 48 h (umol product/mg enzyme); higher = more PET depolymerization activity
Procedure, shortened: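 Tagless, SUMO-cleaved candidate enzymes were purified on nickel beads, and 5 μg (50 μL) was added to 3.5 mg amorphous PET film or crystalline PET powder in 450 μL buffer. Buffers were 50 mM NaCitrate (pH 4.5, 5.5), 50 mM NaPhosphate (pH 6.5, 7.5) or glycine (pH 8.5). Sealed plates were incubated 48 h at 40 or 60 °C without shaking. PET hydrolysis activity is the aromatic product in the supernatant, read by absorbance at 260 and 280 nm against buffer blanks and expressed per mg enzyme.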

[2] = purified protein yield per well (BCA); higher = higher soluble expression
Procedure, shortened: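 Expression was done in E. coli C41(DE3), using 2 mL autoinduction cultures with 100 µg/mL kanamycin incubated at 37 °C for 2 h and at 18 °C for 40 h. Protein was purified on Ni-charged magnetic beads and released by SUMO protease cleavage. Yield of purified protein per well was measured with the Pierce Rapid Gold BCA kit; values below 25 ug (0.1 mg/mL) are below detection.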

[3] = melting temperature (DSF); higher = more thermostable
Procedure, shortened: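 Candidate enzymes were expressed in E. coli C41(DE3), purified on nickel beads and released by SUMO protease cleavage. For differential scanning fluorimetry, 45 μL enzyme (0 to 0.3 mg/mL) was mixed with 5 μL 5X Sypro Orange in sealed PCR plates on a Bio-Rad CFX96 instrument. Fluorescence was read from 25 °C in steps of 0.3 °C per cycle (ramp 0.3 °C/s) for 250 cycles. The read-out is melting temperature.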

[4] = substrate: aFilm, 40 °C, pH 5.5
[5] = substrate: aFilm, 40 °C, pH 6.5
[6] = substrate: aFilm, 40 °C, pH 7.5
[7] = substrate: aFilm, 60 °C, pH 5.5
[8] = substrate: aFilm, 60 °C, pH 6.5
[9] = substrate: aFilm, 60 °C, pH 7.5
[10] = substrate: cryPow, 40 °C, pH 4.5
[11] = substrate: cryPow, 40 °C, pH 5.5
[12] = substrate: cryPow, 40 °C, pH 6.5
[13] = substrate: cryPow, 40 °C, pH 7.5
[14] = substrate: cryPow, 60 °C, pH 4.5
[15] = substrate: cryPow, 60 °C, pH 5.5
[16] = substrate: cryPow, 60 °C, pH 6.5
[17] = substrate: cryPow, 60 °C, pH 7.5
[18] = substrate: aFilm, 40 °C, pH 8.5
[19] = substrate: aFilm, 60 °C, pH 8.5
[20] = substrate: cryPow, 40 °C, pH 8.5
[21] = substrate: cryPow, 60 °C, pH 8.5

MAADNPYQRGPNPTSASVAASRGTFATAELSVPRGNGFGGGKIYYPTDTTQGTFGAIAIVPGYTATWAAEGAWMGHWLASFGFVVIGIDTNSRNDNDTARGTQLLAALDYLTQRSSVRGRVDAKRLAVMGHSMGGGGALVAARQRPSLKAAVGLAPFKPSGPPSADRVPTMVIAGQRDGTVTPSYVDGLYRAIPAGTEKAYLEFAGAGHAFPTRPNPLQMRLVIPWLKSFTDHDTRYHQFLCPLKDRTGVTAYRSTCPLVAPGARD [TEP041]
PET hydrolysis ([1]; substrate: aFilm, 40 °C, pH 4.5): < 3 | PET hydrolysis [1, 4]: < 3 | PET hydrolysis [1, 5]: < 3 | PET hydrolysis [1, 6]: < 3 | PET hydrolysis ([1]; substrate: aFilm, 60 °C, pH 4.5): < 3 | PET hydrolysis [1, 7]: < 3 | PET hydrolysis [1, 8]: < 3 | PET hydrolysis [1, 9]: < 3 | PET hydrolysis [1, 10]: < 3 | PET hydrolysis [1, 11]: < 3 | PET hydrolysis [1, 12]: 3 | PET hydrolysis [1, 13]: < 3 | PET hydrolysis [1, 14]: < 3 | PET hydrolysis [1, 15]: < 3 | PET hydrolysis [1, 16]: < 3 | PET hydrolysis [1, 17]: < 3 | purified protein yield per well [2]: 427 µg | melting temperature [3]: 54.4 C

AGNPYERGPSPTAASIAADRGPFATAQVTVPRGNGFGGGVIYYPTDTSQGTFGAIAIAPGFNTAWSYYAWQGPRLASFGFVVIGIETNTLNDYADARATQLLAALDYLVNSSPVRDRVDRDRLAVGGHSMGGGGALLAATQRPSLLTAVGQAPYVPNGNLSGIKSPTIIFAGQADGTVTPQYAQNAYNTIPADVERAYVEIANEGHGFPAGGGGGNSGAFARTMMVWLKLFIDKDTRYAPFLCPTLSNANGISKYMASCPLDPPGGGPTASPTASPTATPSSTPTGPPPATSALKGVASGRCLDVNGASQANGAQAQIWDCNGQNNQQWTTTSAGELRVYGNKCLDVNGGSTADGTSVIIWDCNGQNNQKWRLNSDGTITAVGANKCLDVSGAGTANGTKTQIWTCHGGTNQKWTRV [DP092]
PET hydrolysis [1, 4]: < 3 | PET hydrolysis [1, 5]: < 3 | PET hydrolysis [1, 6]: < 3 | PET hydrolysis [1, 18]: < 3 | PET hydrolysis [1, 7]: < 3 | PET hydrolysis [1, 8]: < 3 | PET hydrolysis [1, 9]: < 3 | PET hydrolysis [1, 19]: < 3 | PET hydrolysis [1, 11]: 7 ± 1.4 | PET hydrolysis [1, 12]: 13.5 ± 3.5 | PET hydrolysis [1, 13]: 15 | PET hydrolysis [1, 20]: 18.5 ± 2.1 | PET hydrolysis [1, 15]: < 3 | PET hydrolysis [1, 16]: < 3 | PET hydrolysis [1, 17]: < 3 | PET hydrolysis [1, 21]: < 3 | purified protein yield per well [2]: 197 µg | melting temperature [3]: 68.5 C

ADNPFQRGPDPTRASVAAQTGPFANASVSVPTGYGFNGGRIYYPTDTSQGTFGAIAISPGYTALFSAELAWMGPWLASHGFVVIGIETNSRNDFDTARGTQLLAALDYLTQQSPVRDRVDPNRLAVSGHSMGGGGALSAASRRSSLKAAVGITPYSPSSNLANDRVPTMIISGQADTVVTPSYALGLYNSLPATTESVYLEVAGGDHGFMVGRSNPVMIRTMLPFVKMFIDNDTRYSQFLCPLADSSGVVTYRSTCPLLPGAPTTPPTTPPTDSPGSAGEIVGTQSGRCIDVPNAARDNGTRVQLYDCNKQPNQSWTYTSNKQLQVYGDRCLDAAGSGNGAAVQIYSCHSQTNQQWNLNSNGTISNVQSGRCLDVWSTANGAQVQLYDCHGQTNQQFRLASRTR [DP061]
PET hydrolysis [1, 4]: < 3 | PET hydrolysis [1, 5]: < 3 | PET hydrolysis [1, 6]: < 3 | PET hydrolysis [1, 18]: < 3 | PET hydrolysis [1, 7]: < 3 | PET hydrolysis [1, 8]: < 3 | PET hydrolysis [1, 9]: < 3 | PET hydrolysis [1, 19]: < 3 | PET hydrolysis [1, 11]: 14 ± 2.8 | PET hydrolysis [1, 12]: 20 ± 1.4 | PET hydrolysis [1, 13]: 7.5 ± 5 | PET hydrolysis [1, 20]: 2 ± 2.8 | PET hydrolysis [1, 15]: < 3 | PET hydrolysis [1, 16]: < 3 | PET hydrolysis [1, 17]: < 3 | PET hydrolysis [1, 21]: < 3 | purified protein yield per well [2]: 265 µg | melting temperature [3]: 59.8 C

ADNPYQRGPDPSRTSVATETGPFANASVSVPTGYGFNGGRIYYPTDSSQGTFGAIAISPGYTALFSAELAWMGPWLASHGFVVIGIETNSRNDFDTARGTQLLAALDYLTQQSPVRDRVDPNRLAVAGHSMGGGGALSAAVRRSSLKAAVGIAPYSPSSNLANDRVPTMVFSGQADTVVTPSYAIGLYNSLPTTTESVYLEVAGADHGFMVGRSNPVMIRTMLPFVKMFIDNDTRYSQFLCPLLDSSGVVTYRSTCPLLPTTPTTPPVNPTTPPVNPTVSPTGAPGSASEIVGVQSGRCVDVPNASRTNGTRVQLYDCNRQSQQSWTYTSGRQLRVYGDMCLDAAGSGNGAAVQIYACHSQTNQQWNVNSNGTISGVQSGRCLDVWSTANGAQVQLYDCHGQTNQRFNVMPLAR [TEP092]
PET hydrolysis [1, 10]: 5 | PET hydrolysis [1, 11]: 10 | PET hydrolysis [1, 12]: 8 | PET hydrolysis [1, 13]: 3 | PET hydrolysis [1, 14]: < 3 | PET hydrolysis [1, 15]: < 3 | PET hydrolysis [1, 16]: < 3 | PET hydrolysis [1, 17]: < 3 | purified protein yield per well [2]: 154 µg | melting temperature [3]: 60.4 C

ATNPYQRGPAPTAESISAERGSFAVADSAVSADSVSGFGGGTVYYPTDTSAGKFGAVAIAPGFTANEWSLAWLGPRLASHGFVVFIIDTITTGDQPAQRGDELRAALSYLTTSSPVRDRVDPARLGVMGHSMGGGGALQAAEDDPSIRAVIPMTPYDLDSPSPKVTAPTLIIGAQDDTIAPVAYHARPFYESLTSARAKEYIELRNQSHFAPNYPNATIASASIAWLKRYIDDDQRYQPFACPAQVGSWLISDFRSAC [DP034]
PET hydrolysis [1, 4]: < 3 | PET hydrolysis [1, 5]: < 3 | PET hydrolysis [1, 6]: < 3 | PET hydrolysis [1, 18]: < 3 | PET hydrolysis [1, 7]: < 3 | PET hydrolysis [1, 8]: < 3 | PET hydrolysis [1, 9]: < 3 | PET hydrolysis [1, 19]: < 3 | PET hydrolysis [1, 11]: < 3 | PET hydrolysis [1, 12]: < 3 | PET hydrolysis [1, 13]: < 3 | PET hydrolysis [1, 20]: < 3 | PET hydrolysis [1, 15]: < 3 | PET hydrolysis [1, 16]: < 3 | PET hydrolysis [1, 17]: < 3 | PET hydrolysis [1, 21]: < 3 | purified protein yield per well [2]: 180 µg | melting temperature [3]: 47.5 C
